Test results from patent US20230357348A1 (AstraZeneca / MedImmune, published 2023).
Starred links: 1 amine or outer side, 2 acyl side, 3 side chain; linkers in the order of their positions; H or OH if unused. Non-standard residues stand in square brackets, D forms with d. Groups on a side chain read outwards from the residue. No end group written: not given here. *: point of attachment. C18 diacid = O=C(O)CCCCCCCCCCCCCCCCC(=O)*; γGlu = O=C(O)[C@H](CCC(=O)[*:2])N[*:1]; αMeF = C[C@](N)(Cc1ccccc1)C(=O)O; AEEA = NCCOCCOCC(=O)O; Aib = CC(C)(N)C(=O)O

Experiments:
Experiment in all cases: cell-based or functional assay
[1] = target: human GLP-1 receptor (hGLP-1R) (human, UniProt P43220 24-463)
[2] = target: human glucagon receptor (hGCGR) (human, UniProt P47871 26-477)
Target sequence in this assay (P47871 26-477): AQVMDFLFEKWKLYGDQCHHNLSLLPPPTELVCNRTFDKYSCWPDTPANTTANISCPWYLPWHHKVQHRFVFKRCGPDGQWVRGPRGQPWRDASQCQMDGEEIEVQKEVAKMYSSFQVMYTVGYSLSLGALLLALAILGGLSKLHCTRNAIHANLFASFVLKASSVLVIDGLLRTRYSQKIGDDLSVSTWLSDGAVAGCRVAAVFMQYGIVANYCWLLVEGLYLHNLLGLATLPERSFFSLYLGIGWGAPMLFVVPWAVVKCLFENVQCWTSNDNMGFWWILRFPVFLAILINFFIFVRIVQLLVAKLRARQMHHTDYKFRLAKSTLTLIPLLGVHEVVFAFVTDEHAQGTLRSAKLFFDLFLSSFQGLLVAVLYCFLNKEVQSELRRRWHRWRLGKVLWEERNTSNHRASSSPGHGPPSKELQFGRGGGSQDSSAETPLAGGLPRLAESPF

[3] = target: human GLP-1 receptor (hGLP-1R) (human, UniProt P43220 24-463); remark: listed apart in the source
[4] = target: human glucagon receptor (hGCGR) (human, UniProt P47871 26-477); remark: listed apart in the source
Target sequence in this assay (P47871 26-477): as above

Binder | hGLP-1R EC50 (pM) [1] [pM] | hGluc-R EC50 (pM) [2] [pM] | hGLP-1R EC50 (pM) [3] [pM] | hGluc-R EC50 (pM) [4] [pM]
HSQGS[αMeF]TSDVSK[αMeF]LDSK([AEEA-AEEA-γGlu-C18 diacid])AAQDFVQWIANT-NH2 (N-terminus assumed; SMILES CC[C@H](C)[C@H](NC(=O)[C@H](Cc1c[nH]c2ccccc12)NC(=O)[C@H](CCC(N)=O)NC(=O)[C@@H](NC(=O)[C@H](Cc1ccccc1)NC(=O)[C@H](CC(=O)O)NC(=O)[C@H](CCC(N)=O)NC(=O)[C@H](C)NC(=O)[C@H](C)NC(=O)[C@H](CCCCNC(=O)COCCOCCNC(=O)COCCOCCNC(=O)CC[C@H](NC(=O)CCCCCCCCCCCCCCCCC(=O)O)C(=O)O)NC(=O)[C@H](CO)NC(=O)[C@H](CC(=O)O)NC(=O)[C@H](CC(C)C)NC(=O)[C@](C)(Cc1ccccc1)NC(=O)[C@H](CCCCN)NC(=O)[C@H](CO)NC(=O)[C@@H](NC(=O)[C@H](CC(=O)O)NC(=O)[C@H](CO)NC(=O)[C@@H](NC(=O)[C@](C)(Cc1ccccc1)NC(=O)[C@H](CO)NC(=O)CNC(=O)[C@H](CCC(N)=O)NC(=O)[C@H](CO)NC(=O)[C@@H](N)Cc1c[nH]cn1)[C@@H](C)O)C(C)C)C(C)C)C(=O)N[C@@H](C)C(=O)N[C@@H](CC(N)=O)C(=O)N[C@H](C(N)=O)[C@@H](C)O) [Peptide 4] | – | – | 240 | 1170
H[Aib]QGTFTSDVSK[αMeF]LDTK([AEEA-AEEA-γGlu-C18 diacid])RAQDFVQWLL[Aib]T-OH (N-terminus assumed; SMILES CC(C)C[C@H](NC(=O)[C@H](Cc1c[nH]c2ccccc12)NC(=O)[C@H](CCC(N)=O)NC(=O)[C@@H](NC(=O)[C@H](Cc1ccccc1)NC(=O)[C@H](CC(=O)O)NC(=O)[C@H](CCC(N)=O)NC(=O)[C@H](C)NC(=O)[C@H](CCCNC(=N)N)NC(=O)[C@H](CCCCNC(=O)COCCOCCNC(=O)COCCOCCNC(=O)CC[C@H](NC(=O)CCCCCCCCCCCCCCCCC(=O)O)C(=O)O)NC(=O)[C@@H](NC(=O)[C@H](CC(=O)O)NC(=O)[C@H](CC(C)C)NC(=O)[C@](C)(Cc1ccccc1)NC(=O)[C@H](CCCCN)NC(=O)[C@H](CO)NC(=O)[C@@H](NC(=O)[C@H](CC(=O)O)NC(=O)[C@H](CO)NC(=O)[C@@H](NC(=O)[C@H](Cc1ccccc1)NC(=O)[C@@H](NC(=O)CNC(=O)[C@H](CCC(N)=O)NC(=O)C(C)(C)NC(=O)[C@@H](N)Cc1c[nH]cn1)[C@@H](C)O)[C@@H](C)O)C(C)C)[C@@H](C)O)C(C)C)C(=O)N[C@@H](CC(C)C)C(=O)NC(C)(C)C(=O)N[C@H](C(=O)O)[C@@H](C)O) [Peptide 35] | 83.7 | 335 | – | –
H[Aib]QGTFTSDVSK[αMeF]LDSK([AEEA-AEEA-γGlu-C18 diacid])RARDFVQWLL[Aib]T-OH (N-terminus assumed; SMILES CC(C)C[C@H](NC(=O)[C@H](Cc1c[nH]c2ccccc12)NC(=O)[C@H](CCC(N)=O)NC(=O)[C@@H](NC(=O)[C@H](Cc1ccccc1)NC(=O)[C@H](CC(=O)O)NC(=O)[C@H](CCCNC(=N)N)NC(=O)[C@H](C)NC(=O)[C@H](CCCNC(=N)N)NC(=O)[C@H](CCCCNC(=O)COCCOCCNC(=O)COCCOCCNC(=O)CC[C@H](NC(=O)CCCCCCCCCCCCCCCCC(=O)O)C(=O)O)NC(=O)[C@H](CO)NC(=O)[C@H](CC(=O)O)NC(=O)[C@H](CC(C)C)NC(=O)[C@](C)(Cc1ccccc1)NC(=O)[C@H](CCCCN)NC(=O)[C@H](CO)NC(=O)[C@@H](NC(=O)[C@H](CC(=O)O)NC(=O)[C@H](CO)NC(=O)[C@@H](NC(=O)[C@H](Cc1ccccc1)NC(=O)[C@@H](NC(=O)CNC(=O)[C@H](CCC(N)=O)NC(=O)C(C)(C)NC(=O)[C@@H](N)Cc1c[nH]cn1)[C@@H](C)O)[C@@H](C)O)C(C)C)C(C)C)C(=O)N[C@@H](CC(C)C)C(=O)NC(C)(C)C(=O)N[C@H](C(=O)O)[C@@H](C)O) [Peptide 36] | 43.1 | 278 | – | –

Continued, values first:

hGLP-1R EC50 (pM) [1] [pM] | hGluc-R EC50 (pM) [2] [pM] | hGLP-1R EC50 (pM) [3] [pM] | hGluc-R EC50 (pM) [4] [pM] | Binder
76.1 | 194 | – | – | H[Aib]QGTFTSDVSK[αMeF]LDSK([AEEA-AEEA-γGlu-C18 diacid])RAQDFVRWLL[Aib]TE-OH (N-terminus assumed; SMILES CC(C)C[C@H](NC(=O)[C@H](Cc1c[nH]c2ccccc12)NC(=O)[C@H](CCCNC(=N)N)NC(=O)[C@@H](NC(=O)[C@H](Cc1ccccc1)NC(=O)[C@H](CC(=O)O)NC(=O)[C@H](CCC(N)=O)NC(=O)[C@H](C)NC(=O)[C@H](CCCNC(=N)N)NC(=O)[C@H](CCCCNC(=O)COCCOCCNC(=O)COCCOCCNC(=O)CC[C@H](NC(=O)CCCCCCCCCCCCCCCCC(=O)O)C(=O)O)NC(=O)[C@H](CO)NC(=O)[C@H](CC(=O)O)NC(=O)[C@H](CC(C)C)NC(=O)[C@](C)(Cc1ccccc1)NC(=O)[C@H](CCCCN)NC(=O)[C@H](CO)NC(=O)[C@@H](NC(=O)[C@H](CC(=O)O)NC(=O)[C@H](CO)NC(=O)[C@@H](NC(=O)[C@H](Cc1ccccc1)NC(=O)[C@@H](NC(=O)CNC(=O)[C@H](CCC(N)=O)NC(=O)C(C)(C)NC(=O)[C@@H](N)Cc1c[nH]cn1)[C@@H](C)O)[C@@H](C)O)C(C)C)C(C)C)C(=O)N[C@@H](CC(C)C)C(=O)NC(C)(C)C(=O)N[C@H](C(=O)N[C@@H](CCC(=O)O)C(=O)O)[C@@H](C)O) [Peptide 39]
75.6 | 441 | – | – | H[Aib]QGTFTSDVSK[αMeF]LDSK([AEEA-AEEA-γGlu-C18 diacid])RAQDFVEWLL[Aib]T-OH (N-terminus assumed; SMILES CC(C)C[C@H](NC(=O)[C@H](Cc1c[nH]c2ccccc12)NC(=O)[C@H](CCC(=O)O)NC(=O)[C@@H](NC(=O)[C@H](Cc1ccccc1)NC(=O)[C@H](CC(=O)O)NC(=O)[C@H](CCC(N)=O)NC(=O)[C@H](C)NC(=O)[C@H](CCCNC(=N)N)NC(=O)[C@H](CCCCNC(=O)COCCOCCNC(=O)COCCOCCNC(=O)CC[C@H](NC(=O)CCCCCCCCCCCCCCCCC(=O)O)C(=O)O)NC(=O)[C@H](CO)NC(=O)[C@H](CC(=O)O)NC(=O)[C@H](CC(C)C)NC(=O)[C@](C)(Cc1ccccc1)NC(=O)[C@H](CCCCN)NC(=O)[C@H](CO)NC(=O)[C@@H](NC(=O)[C@H](CC(=O)O)NC(=O)[C@H](CO)NC(=O)[C@@H](NC(=O)[C@H](Cc1ccccc1)NC(=O)[C@@H](NC(=O)CNC(=O)[C@H](CCC(N)=O)NC(=O)C(C)(C)NC(=O)[C@@H](N)Cc1c[nH]cn1)[C@@H](C)O)[C@@H](C)O)C(C)C)C(C)C)C(=O)N[C@@H](CC(C)C)C(=O)NC(C)(C)C(=O)N[C@H](C(=O)O)[C@@H](C)O) [Peptide 38]
448 | 886 | – | – | H[Aib]QGTFTSDVSK[αMeF]LDSK([AEEA-AEEA-γGlu-C18 diacid])RARDFVAWLL[Aib]TE-OH (N-terminus assumed; SMILES CC(C)C[C@H](NC(=O)[C@H](Cc1c[nH]c2ccccc12)NC(=O)[C@H](C)NC(=O)[C@@H](NC(=O)[C@H](Cc1ccccc1)NC(=O)[C@H](CC(=O)O)NC(=O)[C@H](CCCNC(=N)N)NC(=O)[C@H](C)NC(=O)[C@H](CCCNC(=N)N)NC(=O)[C@H](CCCCNC(=O)COCCOCCNC(=O)COCCOCCNC(=O)CC[C@H](NC(=O)CCCCCCCCCCCCCCCCC(=O)O)C(=O)O)NC(=O)[C@H](CO)NC(=O)[C@H](CC(=O)O)NC(=O)[C@H](CC(C)C)NC(=O)[C@](C)(Cc1ccccc1)NC(=O)[C@H](CCCCN)NC(=O)[C@H](CO)NC(=O)[C@@H](NC(=O)[C@H](CC(=O)O)NC(=O)[C@H](CO)NC(=O)[C@@H](NC(=O)[C@H](Cc1ccccc1)NC(=O)[C@@H](NC(=O)CNC(=O)[C@H](CCC(N)=O)NC(=O)C(C)(C)NC(=O)[C@@H](N)Cc1c[nH]cn1)[C@@H](C)O)[C@@H](C)O)C(C)C)C(C)C)C(=O)N[C@@H](CC(C)C)C(=O)NC(C)(C)C(=O)N[C@H](C(=O)N[C@@H](CCC(=O)O)C(=O)O)[C@@H](C)O) [Peptide 168]
– | – | 22.7 | – | H[Aib]QGTFTSDVSK[αMeF]LDTK([AEEA-AEEA-γGlu-C18 diacid])RAQDFVRWLLE[Aib]G-OH (N-terminus assumed; SMILES CC(C)C[C@H](NC(=O)[C@H](Cc1c[nH]c2ccccc12)NC(=O)[C@H](CCCNC(=N)N)NC(=O)[C@@H](NC(=O)[C@H](Cc1ccccc1)NC(=O)[C@H](CC(=O)O)NC(=O)[C@H](CCC(N)=O)NC(=O)[C@H](C)NC(=O)[C@H](CCCNC(=N)N)NC(=O)[C@H](CCCCNC(=O)COCCOCCNC(=O)COCCOCCNC(=O)CC[C@H](NC(=O)CCCCCCCCCCCCCCCCC(=O)O)C(=O)O)NC(=O)[C@@H](NC(=O)[C@H](CC(=O)O)NC(=O)[C@H](CC(C)C)NC(=O)[C@](C)(Cc1ccccc1)NC(=O)[C@H](CCCCN)NC(=O)[C@H](CO)NC(=O)[C@@H](NC(=O)[C@H](CC(=O)O)NC(=O)[C@H](CO)NC(=O)[C@@H](NC(=O)[C@H](Cc1ccccc1)NC(=O)[C@@H](NC(=O)CNC(=O)[C@H](CCC(N)=O)NC(=O)C(C)(C)NC(=O)[C@@H](N)Cc1c[nH]cn1)[C@@H](C)O)[C@@H](C)O)C(C)C)[C@@H](C)O)C(C)C)C(=O)N[C@@H](CC(C)C)C(=O)N[C@@H](CCC(=O)O)C(=O)NC(C)(C)C(=O)NCC(=O)O) [Peptide 140]
68.6 | 2750 | – | – | H[Aib]QGTFTSDVSK[αMeF]LDSK([AEEA-AEEA-γGlu-C18 diacid])RAEDFVQWLL[Aib]T-OH (N-terminus assumed; SMILES CC(C)C[C@H](NC(=O)[C@H](Cc1c[nH]c2ccccc12)NC(=O)[C@H](CCC(N)=O)NC(=O)[C@@H](NC(=O)[C@H](Cc1ccccc1)NC(=O)[C@H](CC(=O)O)NC(=O)[C@H](CCC(=O)O)NC(=O)[C@H](C)NC(=O)[C@H](CCCNC(=N)N)NC(=O)[C@H](CCCCNC(=O)COCCOCCNC(=O)COCCOCCNC(=O)CC[C@H](NC(=O)CCCCCCCCCCCCCCCCC(=O)O)C(=O)O)NC(=O)[C@H](CO)NC(=O)[C@H](CC(=O)O)NC(=O)[C@H](CC(C)C)NC(=O)[C@](C)(Cc1ccccc1)NC(=O)[C@H](CCCCN)NC(=O)[C@H](CO)NC(=O)[C@@H](NC(=O)[C@H](CC(=O)O)NC(=O)[C@H](CO)NC(=O)[C@@H](NC(=O)[C@H](Cc1ccccc1)NC(=O)[C@@H](NC(=O)CNC(=O)[C@H](CCC(N)=O)NC(=O)C(C)(C)NC(=O)[C@@H](N)Cc1c[nH]cn1)[C@@H](C)O)[C@@H](C)O)C(C)C)C(C)C)C(=O)N[C@@H](CC(C)C)C(=O)NC(C)(C)C(=O)N[C@H](C(=O)O)[C@@H](C)O) [Peptide 37]
